The results in this text go back to patent US20170157165, “APTAMER FOR FGF2 AND USE THEREOF” (RIBOMIC INC., published 2017).

Common to all, as to conditions: tags: Peprotech
Data set [1] addresses T1, FGF2 (Homo sapiens, UniProt P09038 P09038:135-288). The data set can be described thus: cell_activity; HUVEC proliferation, FGF2 0.58 nM. Here is the method:
(§1) Human umbilical vein endothelial cells (HUVEC) were seeded in a 96 well flat bottom plate at 5×10³ cells per well, and cultured overnight using a medium EGM-2 Bullet Kit for endothelial cells (CC-3162 manufactured by Lonza) containing 2% fetal bovine serum and growth factors. Thereafter, the medium was discarded, the cells were washed twice with PBS buffer, and a mixture of the aptamer shown by aptamer ID 3(21) (5, 2.5, 1, 0.5 nM) and FGF2 (final concentration 0.5 nM), dissolved in a medium exclusively for endothelial cells containing 2% fetal bovine serum, was added. After 72 hr, viable cell number was examined using Cell Counting Kit-8. For the measurement of absorbance, a microplate reader (450 nm) was used. One sample was measured at n=3. As a positive control, anti-FGF2 antibody Anti-FGF, basic (Ab-3) Mouse mAb (3H3) (manufactured by Calbiochem) were used. With the OD value per well obtained by the addition of FGF2 alone and culture of the cells for 3 days as inhibitory activity 0%, and that of the cell obtained by FGF2 free culture for 3 days as inhibitory activity 100%, the inhibitory activity of the aptamer was calculated from the OD value per well obtained by culturing with the addition of a mixture of FGF2 and the aptamer. As a result, it was shown that the aptamer shown by aptamer ID 3(21) has a high inhibitory activity against FGF2.
By a method similar to the above except that the 96 well flat bottom plate was changed to a collagen-coated one, the activity of various aptamers was evaluated. The concentration of FGF2 added was 0.58 nM. As a negative control RNA, Macugen (registered trade mark) sequence without addition of PEG, and with C6 modification of the 5′-terminal and idT modification of the 3′-terminal was used.

For data set [2], the target named is T1, FGF2. Description: inhibition; SPR inhibition of FGF2-FGFR1alpha(IIIc); each 0.1 uM. Here is the method:
BIAcore2000 manufactured by BIAcore was used for the measurement. As directed in BIAcore Company's protocol, Protein A (21181, manufactured by PIERCE) was immobilized on a CM5 sensor chip. About 1,000 RU of human FGFR1α (IIIc), R2α (IIIc), R3 (IIIc), R4 (manufactured by R&D Systems) fused with the Fc portion of IgG (manufactured by R&D systems) was each immobilized thereon. As analyte, a mixture of FGF2 (0.1 μM), heparin (0.1 μM) (manufactured by Pfizer) and aptamer (0.15 μM) was flown. Before an inhibitory test, a mixture of FGF2 and heparin was confirmed to bind to 4 kinds of receptors. […] A sensorgram showing that the aptamer shown by aptamer ID 1 inhibits binding of FGF2 and FGFR1α(IIIc), 2α(IIIc), 3(IIIc), 4 is shown in FIG. 2.
In addition, the inhibitory rate against each of the 4 kinds of receptors was determined. The inhibitory rate was determined with the maximum binding amount of the FGF2 and heparin mixture as 0, and the binding amount with an injection buffer alone as 100. The binding amount here means the RU value of the peak top of sensorgram. The inhibitory rate was calculated. […] The inhibitory rate of other aptamers was not more than 50%.
To enhance FGF2-binding activity, stability, drug deliverability and the like, the nucleic acids shown by aptamer IDs 3(1)-3(40), aptamer IDs 4 and 4(1)-4(4), aptamer ID 5 and aptamer ID 6 were chemically synthesized based on the aptamer shown in SEQ ID NO: 3. Here, the aptamer shown by aptamer ID 4 is the aptamer shown by aptamer ID 3(19) wherein one G(M) at the 5′-terminal and one C(M) at the 3′-terminal have been deleted. The aptamer shown by aptamer ID 5 is the aptamer shown by aptamer ID 3(19) wherein one G(M) has been added at the 5′-terminal and one C(M) has been added at the 3′-terminal. The aptamer shown by aptamer ID 6 is the aptamer shown by aptamer ID 3(19) wherein A(M) alone has been added at the 5′-terminal. These nucleic acids were produced by chemical synthesis.

For data set [3], the target named is T1, FGF2. The data set can be described thus: cell_activity; HUVEC proliferation. As to the method: as §1
By a method similar to that in Example 5, the inhibitory activity of the aptamers shown by aptamer IDs 8-12 was measured.

For data set [4], the target named is T1, FGF2. Description: cell_activity; HUVEC proliferation, FGF2 0.5 nM. Here is the method: as §1

T1 sequence (P09038 135-288, one chain of several): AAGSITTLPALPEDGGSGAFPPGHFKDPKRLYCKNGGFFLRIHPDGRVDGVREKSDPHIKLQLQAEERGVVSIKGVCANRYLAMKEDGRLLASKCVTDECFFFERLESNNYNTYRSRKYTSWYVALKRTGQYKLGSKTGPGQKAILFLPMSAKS

B1: aptamer ID 4(3) (ssRNA)
RNA: GGAUACUAGGGCAUUAAUGUUACCAGUGUAGUCC
modifications: 2'-F at U7,G11,U15,U20,U27,U29; 2'-OH at G26,G28; all others 2'-OMe; PS between U27 and G28; 3' idT
Regarding B1, in the data set with FGF2 [1], it took 4.6 nM to reach half-maximal inhibition (IC50). In the data set with FGF2 [2], this molecule returned an activity of 96%.

B2: aptamer ID 4(4) (ssRNA)
RNA: GGAUACUAGGGCAUUAAUGUUACCAGUGUAGUCC
modifications: 2'-F at U7,G11,U15,U20,G26,U27,U29; 2'-OH at G28; all others 2'-OMe; PS between G28 and U29; 3' idT
In the case of B2, the IC50 with FGF2 [1] was found to be 4.5 nM. In the data set with FGF2 [2], this molecule registered an activity of 96%.

B3: aptamer ID 6 (ssRNA)
RNA: AGGGAUACUAGGGCAUUAAUGUUACCAGUGUAGUCCC
modifications: 2'-F at U9,U17,U22,U29,U31; 2'-OH at G13,G28,G30; all others 2'-OMe; 3' idT
Molecule B3 gave an IC50 in the data set with FGF2 [1] of 3.1 nM. Moreover, the activity with FGF2 [2] was found to be 93%.

B4: aptamer ID 8 (ssRNA)
RNA: CGGAUACUAGGGCAUUAAUGUUACCAGUGUAGUCCG
modifications: 2'-F at U8,U16,U21,U28,U30; 2'-OH at G12,G27,G29; all others 2'-OMe; 5' NH2; 3' idT
Take B4: half-maximal inhibition with FGF2 [3] (IC50) was put at 5.6 nM.

B5: aptamer ID 3(19) (ssRNA)
RNA: GGGAUACUAGGGCAUUAAUGUUACCAGUGUAGUCCC
modifications: 2'-F at U8,U16,U21,U28,U30; 2'-OH at G12,G27,G29; all others 2'-OMe; 3' idT
In the data set with FGF2 [3], B5 registered an IC50 of 3.4 nM. In the data set with FGF2 [2], this molecule gave an activity of 93%.

B6: aptamer ID 9 (ssRNA)
RNA: CCGAUACUAGGGCAUUAAUGUUACCAGUGUAGUCGG
modifications: 2'-F at U8,U16,U21,U28,U30; 2'-OH at G12,G27,G29; all others 2'-OMe; 5' NH2; 3' idT
In the data set with FGF2 [3], B6 displayed a half-inhibitory concentration (IC50) of 3.7 nM.

B7: aptamer ID 11 (ssRNA)
RNA: GGGAUACUAGGGCCUUAAGGUUACCAGUGUAGUCCC
modifications: 2'-F at U8,U16,U21,U28,U30; 2'-OH at G12,G27,G29; all others 2'-OMe
On to B7, for which the midpoint of inhibition in the data set with FGF2 [3], the IC50, lay at 13 nM.

B8: aptamer ID 10 (ssRNA)
RNA: GGGAUACUAGGGCGUUAACGUUACCAGUGUAGUCCC
modifications: 2'-F at U8,U16,U21,U28,U30; 2'-OH at G12,G27,G29; all others 2'-OMe
The molecule B8 returned an IC50 in the data set with FGF2 [3] of 4.9 nM.

B9: aptamer ID 12 (ssRNA)
RNA: GGGAUACUAGGGCAUUUAUGUUACCAGUGUAGUCCC
modifications: 2'-F at U8,U16,U21,U28,U30; 2'-OH at G12,G27,G29; all others 2'-OMe
As for B9, in the data set with FGF2 [3], the midpoint of inhibition, the IC50, lay at 2.3 nM.

B10: aptamer ID 3(21) (ssRNA)
RNA: GGGAUACUAGGGCAUUAAUGUUACCAGUGUAGUCCC
modifications: 2'-F at U8,U16,U21,U28,U30; 2'-OH at G12,G27,G29; all others 2'-OMe; 5' PEG 40K (GL2-400TS)-C6; 3' idT
B10 returned an activity with FGF2 [2] of 97%. Also, in the data set with FGF2 [4], the IC50 is roughly 1 nM.

B11: aptamer ID 5 (ssRNA)
RNA: GGGGAUACUAGGGCAUUAAUGUUACCAGUGUAGUCCCC
modifications: 2'-F at U9,U17,U22,U29,U31; 2'-OH at G13,G28,G30; all others 2'-OMe; 3' idT
Consider B11, for which, in the data set with FGF2 [1], the IC50 is 2.6 nM. In the data set with FGF2 [2], this molecule displayed an activity of 94%.

By IC50 is commonly meant the concentration at which inhibition is half-maximal. Higher therefore signals weaker potency.
